{"source": "patent US7959916B2", "about": "“Negative immunomodulation of immune responses by ERp5” (Fred Hutchinson Cancer Research Center, priority 2007, dated 2011)", "molecules": {"B1": {"name": "soluble MICA: soluble form of MHC class I-related chain A, NKG2D ligand binding ERp5 (protein)", "chain": "EPHSLRYNLTVLSWDGSVQSGFLTEVHLDGQPFLRCDRQKCRAKPQGQWAEDVLGNKTWDRETRDLTGNGKDLRMTLAHIKDQKEGLHSLQEIRVCEIHEDNSTRSSQHFYYDGELFLSQNLETKEWTMPQSSRAQTLAMNVRNFLKEDAMKTKTHYHAMHADCLQELRRYLKSGVVLRRTVPPMVNVTRSEASEGNITVTCRASGFYPWNITLSWRQDGVSLSHDTQQWGDVLPDGNGTYQTWVATRICQGEEQRFTCYMEHSGNHSTHPVPSGK"}, "B2": {"name": "rMICA: Non-glycosylated recombinant MICA expressed in bacteria (protein)", "chain": "B1 chain"}, "B3": {"name": "dRNase: Denatured and reduced RNase A, excess substrate shifting ERp5 equilibrium towards the reduced state (protein, UniProt P61823 27-150, looked up)", "Ribonuclease pancreatic": "KETAAAKFERQHMDSSTSAASSSNYCNQMMKSRNLTKDRCKPVNTFVHESLADVQAVCSQKNVACKNGQTNCYQSYSTMSITDCRETGSSKYPNCAYKTTQANKHIIVACEGNPYVPVHFDASV", "modifications": "denatured and reduced", "notes": "Denatured and reduced RNase A, excess substrate shifting ERp5 equilibrium towards the reduced state"}, "B4": {"name": "native RNase: native RNase A used as control for dRNase (protein, UniProt P61823 27-150, looked up)", "Ribonuclease pancreatic": "B3 Ribonuclease pancreatic"}, "B5": {"name": "C36S: C36S mutant of ERp5 fragment 1-118 (protein)", "chain": "LYSSSDDVIELTPSNFNREVIQSDSLWLVEFYAPWSGHCQRLTPEWKKAATALKDVVKVGAVDADKHHSLGGQYGVQGFPTIKIFGSNKNRPEDYQGGRTGEAIVDAALSALRQLVKD", "modifications": "left off: small tags and cut ends"}, "B6": {"name": "C39S: C39S mutant of ERp5 fragment 1-118 (protein)", "chain": "B5 chain with S36C, C39S", "modifications": "left off: small tags and cut ends"}, "B7": {"name": "ERp51-118: recombinant N-terminal thioredoxin-like domain fragment of ERp5, residues 1-118 (protein)", "chain": "B5 chain with S36C", "modifications": "left off: small tags and cut ends"}}, "key": {"[1]": {"tested_on": "surface expression of MICA", "assay": "MICA surface expression on tumor cell lines (flow cytometry)", "conditions": "tumor lines exposed to DTNB or PAO at titered non-toxic concentrations"}, "[2]": {"tested_on": "sMICA shedding by Hela and A375 cells", "assay": "sMICA shedding by tumor cell lines (ELISA for sMICA)"}, "MICA [3]": {"biological_target": "T1, MICA (Homo sapiens, UniProt Q29983)", "T1 sequence (Q29983 24-299)": "B1 chain", "assay": "ERp5 activity assay on MICA substrates (non-reducing SDS-PAGE)", "format": "biochemical", "conditions": "ectodomain MICA, RT, no reducing agents"}, "MICA [4]": {"biological_target": "T2, MICA (Homo sapiens, UniProt Q29983)", "T2 sequence (Q29983 24-203)": "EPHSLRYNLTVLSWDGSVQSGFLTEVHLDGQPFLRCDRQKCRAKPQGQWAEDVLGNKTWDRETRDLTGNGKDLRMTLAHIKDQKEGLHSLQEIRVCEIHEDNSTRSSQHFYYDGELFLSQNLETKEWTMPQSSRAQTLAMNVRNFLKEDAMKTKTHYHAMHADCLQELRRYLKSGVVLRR", "assay": "ERp5 activity assay on MICA substrates (non-reducing SDS-PAGE)", "format": "biochemical", "conditions": "isolated α1α2 platform (residues 1-180)"}, "[5]": {"tested_on": "Siderocalin and CD94-NKG2A", "assay": "ERp5 activity assay on control proteins", "format": "biochemical", "conditions": "Siderocalin (intrachain) and CD94-NKG2A (intrachain and interchain) disulfide bonds"}, "[6]": {"tested_on": "PHA (or anti-CD3)-activated CD4 T cells", "assay": "Cytokine production by activated CD4 T cells (17 multiplex cytokine analysis)", "format": "cell-based", "conditions": "soluble MICA 10 ng/ml, 24 hour supernatants", "procedure": "Total PBMC from healthy donors were cultured for 48 hours with PHA (1 μg/ml) or on solid-phase anti-CD3 (25 ng/ml) and stained for standard three-color flow cytometry using combinations of directly conjugated anti-CD3, -CD4 and -CD8 mAbs followed by anti-ERp5 and PE-goat anti-rabbit Ig. For cytokine analyses, bulk NKG2D^+ and NKG2D^− T cell populations purified by magnetic sorting were plated on solid-phase monoclonal antibodies with or without soluble MICA (10 ng/ml). 24 hour culture supernatants were screened by 17 multiplex cytokine analysis."}, "[7]": {"tested_on": "mDC and allogeneic T cells", "assay": "Mixed-lymphocyte reaction, alloantigen presentation by mDC ([3H]thymidine incorporation)", "format": "cell-based", "conditions": "MLR, soluble MICA 10 ng/ml, 72 h", "procedure": "mDC were matured using standard cytokine cocktail (Il-1β, IL-6, TNFα, and PGE2) in the additional presence or absence of soluble MICA (10 ng/ml). Mature mDC were harvested after 24 to 48 hours and processed for standard flow cytometry of CD80 and CD83 expression. For IL-6 secretion assays, 24 hour cytokine-matured mDC were washed, mixed with irradiated C1R-Neo (control), C1R-MICA or C1R-ULBP1 cells at a ratio of 2:1 and plated at 50,000 (experiment 1 and 2) or 200,000 mDC (experiment 3 and 4) per round-bottom 96-well in 200 μl AIM-V media with LPS (10 μg/ml). IL-6 contents in culture supernatants were measured by standard ELISA. The ability of mature mDC to present alloantigen in the presence or absence of soluble MICA was studied using standard mixed-lymphocyte reaction (MLR). Irradiated (3000 Rad) cytokine-matured mDC and allogeneic T cells were plated at various ratios (X-axis of bottom bar graph) with or without soluble MICA (10 ng/ml AIM-V) in round-bottom 96-well plates. After 72 hours, cells in wells were labeled with [^3H]thymidine for 24 hours and harvested for counting of incorporated radioactivity."}, "[8]": {"tested_on": "monocyte derived dendritic cells (mDC)", "assay": "Maturation marker expression on monocyte-derived dendritic cells (flow cytometry)", "format": "cell-based", "conditions": "mDC matured with cytokine cocktail, soluble MICA 10 ng/ml", "procedure": "Monocytes were enriched from normal peripheral blood mononuclear cells (PBMC) by plastic adherence and cultured under standard conditions in the presence of IL-4 and GM-CSF. Cells were harvested at 6 hour-intervals and stained with fluorescein isothiocyanate (FITC)-anti-CD83 or FITC-HLA-DR followed by saturating phycoerythrin (PE)-MICA tetramer concentrations or polyclonal rabbit anti-ERp5 and PE-goat anti-rabbit Ig. On day 6 of culture with IL-4/GM-CSF, mDC were matured (IL-1β, IL-6, TNFα, and PGE2) and MICA tetramer staining and Erp5 expression monitored for an additional 3 days. MICA tetramer was produced by ectodomain MICA protein expression in transfected 293T cells, protein purification from culture supernatant using Invitrogen technology, and BirA enzymatic biotinylation and conjugation with PE-streptavidin.\nmDC were matured using standard cytokine cocktail (Il-1β, IL-6, TNFα, and PGE2) in the additional presence or absence of soluble MICA (10 ng/ml). Mature mDC were harvested after 24 to 48 hours and processed for standard flow cytometry of CD80 and CD83 expression. […] IL-6 contents in culture supernatants were measured by standard ELISA. […] After 72 hours, cells in wells were labeled with [^3H]thymidine for 24 hours and harvested for counting of incorporated radioactivity."}, "ERp5": {"biological_target": "T3, ERp5 (Homo sapiens, UniProt Q15084)", "T3 sequence (Q15084 20-440)": "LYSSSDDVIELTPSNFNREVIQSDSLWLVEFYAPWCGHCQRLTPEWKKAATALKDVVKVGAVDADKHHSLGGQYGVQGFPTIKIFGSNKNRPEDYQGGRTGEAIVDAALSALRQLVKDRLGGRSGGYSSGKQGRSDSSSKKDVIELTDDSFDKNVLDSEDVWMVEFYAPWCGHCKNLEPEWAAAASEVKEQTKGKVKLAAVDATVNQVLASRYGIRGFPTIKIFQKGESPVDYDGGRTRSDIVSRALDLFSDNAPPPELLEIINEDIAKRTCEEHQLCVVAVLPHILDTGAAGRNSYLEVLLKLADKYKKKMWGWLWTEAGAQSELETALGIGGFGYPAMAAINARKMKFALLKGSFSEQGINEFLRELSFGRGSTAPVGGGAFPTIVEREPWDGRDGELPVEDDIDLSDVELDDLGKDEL", "assay": "MICA tetramer binding to NKG2D-negative tumor cells (flow cytometry)", "conditions": "U266, Hela, HCT116, Lovo and A375 cells, competition with unglycosylated protein"}, "ERp5-MICA complexes": {"tested_on": "ERp5-MICA complexes", "assay": "Capturing of ERp5-MICA complexes by co-immunoprecipitation from TCA-treated Hela cells", "format": "cell-based", "conditions": "Hela cells grown 16 h with increasing concentrations", "excerpt": "Immunoprecipitations and sMICA cleavage."}, "MICA [9]": {"biological_target": "T4, MICA (Homo sapiens, UniProt Q29983)", "T4 sequence (Q29983 210-297)": "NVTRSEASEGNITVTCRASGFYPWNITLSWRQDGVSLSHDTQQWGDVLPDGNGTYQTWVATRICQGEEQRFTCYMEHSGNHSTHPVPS", "assay": "ERp5 activity assay on MICA substrates (non-reducing SDS-PAGE)", "format": "biochemical", "conditions": "isolated α3 domain (residues 187-274)"}}, "note": "Residue numbers refer to the chain shown, from its start. Names and notes keep the numbering of the source."}
{"molecule": "O=C(O)c1cc(SSc2ccc([N+](=O)[O-])c(C(=O)O)c2)ccc1[N+](=O)[O-]", "note": "[DTNB, 5,5-dithiobis-(2-nitrobenzoic acid), reference compound]", "values": [{"measurement": "surface expression of MICA", "setting": "[1]", "value": "without affecting surface expression of MICA"}, {"measurement": "shedding of sMICA", "setting": "[2]; Hela and A375 cells, 24 h exposure, ELISA, dose-dependent", "value": "reduce shedding of sMICA"}]}
{"molecule": "ERp5: recombinant ERp5 (residues 1-421 of the mature protein) produced in bacteria", "values": [{"measurement": "reduction of MICA disulfide bond", "setting": "MICA [3]", "value": "gradual reduction of MICA"}, {"measurement": "activity on MICA α1α2 domain", "setting": "MICA [4]", "value": "no activity"}, {"measurement": "reduction of unrelated proteins", "setting": "[5]", "value": "did not affect"}]}
{"molecule": "B1", "values": [{"measurement": "amounts of IL-1β, IL-17, G-CSF and MCP1", "setting": "[6]; NKG2D-CD4+ T cells", "value": "increased amounts"}, {"measurement": "amounts of IL-1β, IL-17, G-CSF and MCP1", "setting": "[6]; activated NKG2D+CD4+ T cells", "value": "vastly increased"}, {"measurement": "ability of mDC to present alloantigen and stimulate T cells", "setting": "[7]", "value": "reduced ability to present alloantigen and stimulate T cells"}, {"measurement": "expression of DC maturation markers (CD83; CD80)", "setting": "[8]", "value": "diminished"}]}
{"molecule": "B2", "values": [{"measurement": "MICA tetramer binding to NKG2D- tumor cells", "setting": "ERp5", "value": "inhibited"}]}
{"molecule": "B3", "values": [{"measurement": "ERp5 co-immunoprecipitating with MICA, emergence of sMICA", "setting": "ERp5-MICA complexes", "value": "larger amounts of ERp5 co-immunoprecipitating with MICA"}, {"measurement": "sMICA shedding", "setting": "[2]; Hela and A375 cell cultures treated with dRNase, 16 h", "value": "promotes sMICA shedding"}]}
{"molecule": "B4", "values": [{"measurement": "ERp5 co-immunoprecipitating with MICA, emergence of sMICA", "setting": "ERp5-MICA complexes", "value": "None of those biochemical changes were observed"}]}
{"molecule": "B5", "values": [{"measurement": "reduction of MICA disulfide bond", "setting": "MICA [3]", "value": "no activity"}]}
{"molecule": "B6", "values": [{"measurement": "activity on MICA α3 domain", "setting": "MICA [9]", "value": "reduces the MICA α3 disulfide bond"}, {"measurement": "reduction of MICA disulfide bond", "setting": "MICA [3]", "value": "formed a trapped disulfide-linked intermediate"}]}
{"molecule": "B7", "values": [{"measurement": "reduction of MICA disulfide bond", "setting": "MICA [3]", "value": "partially reduced"}]}
